Experimental data: patent publication US20230265198A1 (TWIST BIOSCIENCE, published 2023)

Molecular target: T1, neuropilin-1 (NRP1) on HEK293 cells overexpressing NRP1 (UniProt O14786 22-923, limits assumed)
T1 construct: whole, on cells
Experiment: flow cytometry, HEK293-NRP1 vs HEK293

Binder | 100 nM FACS (MFI Ratio)
NRP1-1 (VHH) VHH: EVQLVESGGGLVQPGGSLRLSCAASGRTFRRYAMGWFRQAPGKEREFVASISRSGTLTRYADSVKGRFTISADNSKNTAYLQMNSLKPEDTAVYYCAAKTGAFSYGSLWWMSRAYNWGQGTLVTVSS | 15.4
NRP1-80 (VHH) VHH: EVQLVESGGGLVQPGGSLRLSCAASGSIDRINAMGWFRQAPGKEREFVASIWWTFDAPYYADSVKGRFTISADNSKNTAYLQMNSLKPEDTAVYYCATWTTTWGRNRDWGQGTLVTVSS | 6.9
NRP1-78 (VHH) VHH: EVQLVESGGGLVQPGGSLRLSCAASGRTFRSYPMGWFRQAPGKEREWVASITSSATAYADSVKGRFTISADNSKNTAYLQMNSLKPEDTAVYYCALGPVRRSRLEWGQGTLVTVSS | 3.6
NRP1-79 (VHH) VHH: EVQLVESGGGLVQPGGSLRLSCAASGRTYYAMGWFRQAPGKEREFVAAISWGGGLTVYADSVKGRFTISADNSKNTAYLQMNSLKPEDTAVYYCASSGWLTDYYYAMDVWGQGTLVTVSS | 13.2
NRP1-96 (VHH) VHH: EVQLVESGGGLVQPGGSLRLSCAASGLTYTMSWFRQAPGKEREFVAGFSGSGSVTSYADSVKGRFTISADNSKNTAYLQMNSLKPEDTAVYYCAAFDGYSGSDWGQGTLVTVSS | 1.4
NRP1-37 (VHH) VHH: EVQLVESGGGLVQPGGSLRLSCAASGRTFSIYAMGWFRQAPGKERELVAAISRTGGSTYYADSVKGRFTISADNSKNTAYLQMNSLKPEDTAVYYCAADRMYRPVGNQYDWGQGTLVTVSS | 8.8
NRP1-114 (VHH) VHH: EVQLVESGGGLVQPGGSLRLSCAASGRSSRYYAMGWFRQAPGKEREFVAAIRWSGGTTFYADSVKGRFTISADNSKNTAYLQMNSLKPEDTAVYYCAADRMYRPVGNQYDWGQGTLVTVSS | 8.7
NRP1-99 (VHH) VHH: EVQLVESGGGLVQPGGSLRLSCAASGRTSNIYAMGWFRQAPGKEREFVAAISRSGGLKSYADSVKGRFTISADNSKNTAYLQMNSLKPEDTAVYYCAADRMYRPVGNQYDWGQGTLVTVSS | 0.8
NRP1-75 (VHH) VHH: EVQLVESGGGLVQPGGSLRLSCAASGRTISVYAMGWFRQAPGKERELVAAINRSGKSTYYADSVKGRFTISADNSKNTAYLQMNSLKPEDTAVYYCAADRMYRPVGNQYDWGQGTLVTVSS | 4.2
NRP1-81 (VHH) VHH: EVQLVESGGGLVQPGGSLRLSCAASGRSSRYYAMGWFRQAPGKEREFVAAIRWTGMNTHYADSVKGRFTISADNSKNTAYLQMNSLKPEDTAVYYCAADRMYRPVGNQYDWGQGTLVTVSS | 5
NRP1-106 (VHH) VHH: EVQLVESGGGLVQPGGSLRLSCAASGRTFSIYAMGWFRQAPGKERELVAAISRTGGSTYYADSVKGRFTISADNSKNTAYLQMNSLKPEDTAVYYCAARRIVNVEGAYRDWGQGTLVTVSS | 2.2
NRP1-47 (VHH) VHH: EVQLVESGGGLVQPGGSLRLSCAASGRSSRYYAMGWFRQAPGKEREFVAAIKWSGTSTYYADSVKGRFTISADNSKNTAYLQMNSLKPEDTAVYYCAADRMYRPVGNQYDWGQGTLVTVSS | 6.6
NRP1-86 (VHH) VHH: EVQLVESGGGLVQPGGSLRLSCAASGNIFINNAMGWFRQAPGKERELVAAITSSSGRRWYADSVKGRFTISADNSKNTAYLQMNSLKPEDTAVYYCAADRMYRPVGNQYDWGQGTLVTVSS | 2.4
NRP1-76 (VHH) VHH: EVQLVESGGGLVQPGGSLRLSCAASGITFRRYAMGWFRQAPGKEREIVATIWWTFDAPYYADSVKGRFTISADNSKNTAYLQMNSLKPEDTAVYYCAAYQAGWGDWGQGTLVTVSS | 3.1
NRP1-61 (VHH) VHH: EVQLVESGGGLVQPGGSLRLSCAASGRTFSRYAMGWFRQAPGKEREWVAGISWTGGITYYADSVKGRFTISADNSKNTAYLQMNSLKPEDTAVYYCAAYQRGWGDWGQGTLVTVSS | 0.9
NRP1-2 (VHH) VHH: EVQLVESGGGLVQPGGSLRLSCAASGGTFTKQTMGWFRQAPGKEREFVATIWWTFDAPYYADSVKGRFTISADNSKNTAYLQMNSLKPEDTAVYYCAAYQAGWGDWGQGTLVTVSS | 15.7
NRP1-71 (VHH) VHH: EVQLVESGGGLVQPGGSLRLSCAASGRTFSNAAMGWFRQAPGKERELVARITPGGNTNYADSVKGRFTISADNSKNTAYLQMNSLKPEDTAVYYCAARRIVNVEGAYRDWGQGTLVTVSS | 0.4
NRP1-77 (VHH) VHH: EVQLVESGGGLVQPGGSLRLSCAASGRIFINNAMGWFRQAPGKERELVARISPAGSTYYADSVKGRFTISADNSKNTAYLQMNSLKPEDTAVYYCAARRIVNVEGAYRDWGQGTLVTVSS | 4.9
NRP1-100 (VHH) VHH: EVQLVESGGGLVQPGGSLRLSCAASGRSVSTYGMGWFRQAPGKERELVASISRFGRTNYADSVKGRFTISADNSKNTAYLQMNSLKPEDTAVYYCAARRIVNVEGAYRDWGQGTLVTVSS | 0.6
NRP1-48 (VHH) VHH: EVQLVESGGGLVQPGGSLRLSCAASGFTFRNFGMGWFRQAPGKERELVARITGGGSTAYADSVKGRFTISADNSKNTAYLQMNSLKPEDTAVYYCAARRIVNVEGAYRDWGQGTLVTVSS | 0.7
NRP1-51 (VHH) VHH: EVQLVESGGGLVQPGGSLRLSCAASGFAFSNYHMGWFRQAPGKERELVARITPGGNTNYADSVKGRFTISADNSKNTAYLQMNSLKPEDTAVYYCAARRIVNVEGAYRDWGQGTLVTVSS | 0.8
NRP1-59 (VHH) VHH: EVQLVESGGGLVQPGGSLRLSCAASGRTISNAAMGWFRQAPGKERELVASISRFGRTNYADSVKGRFTISADNSKNTAYLQMNSLKPEDTAVYYCAARRIVNVEGAYRDWGQGTLVTVSS | 0.4
NRP1-65 (VHH) VHH: EVQLVESGGGLVQPGGSLRLSCAASGRTISNAAMGWFRQAPGKEREWVAAITSGGYTHYADSVKGRFTISADNSKNTAYLQMNSLKPEDTAVYYCAARRIVNVEGAYRDWGQGTLVTVSS | 0.7
NRP1-46 (VHH) VHH: EVQLVESGGGLVQPGGSLRLSCAASGFTFRNFGMGWFRQAPGKEREIVARISPSGNTYYADSVKGRFTISADNSKNTAYLQMNSLKPEDTAVYYCAARRIVNVEGAYRDWGQGTLVTVSS | 2.2
